Legend:
[1] = target: T1, NF-kB p65 (RelA), recombinant (Homo sapiens, UniProt Q04206 1-551); test: competition EMSA
[2] = target: T1, NF-kB p65 (RelA), recombinant; test: EMSA, supershift

T1 sequence (Q04206 whole entry): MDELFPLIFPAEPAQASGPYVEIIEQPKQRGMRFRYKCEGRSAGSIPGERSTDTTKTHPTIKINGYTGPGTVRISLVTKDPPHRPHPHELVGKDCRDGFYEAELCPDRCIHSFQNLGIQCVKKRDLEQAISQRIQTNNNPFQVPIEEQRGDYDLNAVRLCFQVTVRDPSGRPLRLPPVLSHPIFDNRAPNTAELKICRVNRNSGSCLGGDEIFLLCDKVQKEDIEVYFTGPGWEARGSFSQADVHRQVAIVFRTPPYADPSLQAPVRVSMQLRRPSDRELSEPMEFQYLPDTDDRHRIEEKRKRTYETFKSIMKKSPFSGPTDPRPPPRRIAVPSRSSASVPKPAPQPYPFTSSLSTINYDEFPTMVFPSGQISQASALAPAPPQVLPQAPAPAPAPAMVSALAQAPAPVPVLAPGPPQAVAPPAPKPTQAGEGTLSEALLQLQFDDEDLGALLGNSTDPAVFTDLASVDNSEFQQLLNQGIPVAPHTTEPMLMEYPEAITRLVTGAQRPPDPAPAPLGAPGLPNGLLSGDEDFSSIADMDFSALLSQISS

Row | Binder | binding result [1] | binding result [2]
1 | Mutant 2 (… to CCCTTAAGGG) (dsDNA) DNA 1: CTGTGCTCCCTTAAGGGTTAGCTCC DNA 2: GGAGCTAACCCTTAAGGGAGCACAG | no binding | 
2 | PLCB2 -1652/-1628 WT NF-kB probe (dsDNA) DNA 1: CTGTGCTGGGAATTCCCTTAGCTCC DNA 2: GGAGCTAAGGGAATTCCCAGCACAG |  | binds
3 | Mutant 1 (NF-kB site deleted) (dsDNA) DNA 1: CTGTGCTTTAGCTCC DNA 2: GGAGCTAAAGCACAG | no binding | 

Source: paper PMC6919569
